Assay results taken from the supplement of paper PMC10126150.
± gives the standard deviation of the averaged measurements.

Test system: ATP
Assay: switch fluorescence ratio, 500 uM ATP over buffer (Cy3 cluster intensity, sum of 5 cycles each) (fold (ratio)); higher = stronger signal-on switching upon ATP binding; sequences stand for … in TCGTCGGCAGCGTCAGATGTGTATAAGAGACAGTTTTTTTTTTTTTTTTTTTTTTTTT…TC
Conditions: aptamer strand: ATP DNA aptamer (quencher-CACCTGGGGGAGTATTGCGGAGGAAGG + anchor), 100 nM annealed; ATP concentration: 500 uM
Summary of the method: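 The quencher-labelled ATP aptamer, at 100 nM, was annealed to Cy3-labelled switching-strand clusters on a modified Illumina MiSeq flow-cell. The clusters were imaged in selection buffer, then after 15 min with 500 uM ATP at 22 °C, and this buffer/ATP cycle ran five times with NaOH stripping and re-annealing between runs. Per-cluster fluorescence ratios, summed target-cycle over summed buffer-cycle Cy3 intensity, were averaged per switch-domain sequence. Clusters outside 100-1000 RFU were excluded.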
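Also: ATP exposure 15 min at 22 °C before imaging.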

Sequence	switch fluorescence ratio
AGGGATCTGC	0.966 ± 0.028
AGGGATGGGG	0.976 ± 0.016
AGGGATGGTA	1.006 ± 0.0083
AGGGATTTGT	1.028 ± 0.003
AGGGATTTTT	0.999 ± 0.011
AGGGCAAACG	1.05 ± 0.0075
AGGGCAACTG	1.07 ± 0.079
AGGGCAGCTT	1.06 ± 0.025
AGGGCATTCT	0.9837 ± 0.0017
AGGGCCGTAT	1.04 ± 0.056
AGGGCCTTAG	0.9733 ± 0.009
AGGGCGACAG	1.01 ± 0.012
AGGGCGGGTG	1.047 ± 0.0095
AGGGCGGTGT	0.991 ± 0.027
AGGGCGTCTA	1.015 ± 0.003
AGGGCGTCTC	0.981 ± 0.043
AGGGCGTTAG	1.01 ± 0.044
AGGGCTATTT	0.973 ± 0.01
AGGGCTGATA	1.009 ± 0.0013
AGGGCTGCCC	1 ± 0.021
AGGGCTGCGT	0.984 ± 0.017
AGGGCTGGGG	0.973 ± 0.019
AGGGCTTAGA	0.9905 ± 0.0033
AGGGGAAAAC	1.03 ± 0.044
AGGGGAAGGA	1 ± 0.049

Sequence	switch fluorescence ratio
AGGGGAATGG	0.997 ± 0.015
AGGGGACGAC	1.02 ± 0.027
AGGGGACGCC	0.9928 ± 0.0049
AGGGGACTAT	1 ± 0.013
AGGGGAGGAC	1.03 ± 0.02
AGGGGAGGCA	1.02 ± 0.089
AGGGGAGTGG	0.992 ± 0.038
AGGGGAGTTA	1.02 ± 0.051
AGGGGATAGG	0.98 ± 0.046
AGGGGATAGT	0.9659 ± 0.0091
AGGGGATGAA	1.04 ± 0.027
AGGGGATGTG	0.97 ± 0.048
AGGGGATTC	1.002 ± 0.0075
AGGGGCAAAC	1.45 ± 0.078
AGGGGCCCGC	0.98 ± 0.018
AGGGGCTGGG	0.99 ± 0.017
AGGGGCTGGT	0.997 ± 0.026
AGGGGCTTCG	1.04 ± 0.015
AGGGGCTTCT	1.06 ± 0.028
AGGGGCTTTA	1.14 ± 0.2
AGGGGGACGT	0.998 ± 0.024
AGGGGGAGAT	1.02 ± 0.042
AGGGGGAGGT	0.975 ± 0.017
AGGGGGATTG	0.987 ± 0.03
AGGGGGCAAT	1.11 ± 0.18

Sequence	switch fluorescence ratio
AGGGGGCCAG	1 ± 0.019
AGGGGGCGGG	1.03 ± 0.035
AGGGGGCGGT	0.959 ± 0.033
AGGGGGGAAT	1.03 ± 0.048
AGGGGGGACA	1.02 ± 0.084
AGGGGGGAGC	1.01 ± 0.029
AGGGGGGCCG	1.08 ± 0.019
AGGGGGGCTT	1.01 ± 0.054
AGGGGGGGAT	0.982 ± 0.029
AGGGGGGGCG	0.975 ± 0.05
AGGGGGGGT	1.05 ± 0.077
AGGGGGTAGT	0.983 ± 0.011
AGGGGGTATG	0.983 ± 0.014
AGGGGGTATT	1.01 ± 0.024
AGGGGGTCAG	0.986 ± 0.027
AGGGGGTT	1 ± 0.077
AGGGGGTTGT	0.995 ± 0.026
AGGGGGTTTA	0.999 ± 0.031
AGGGGGTTTT	1 ± 0.036
AGGGGTACGT	0.982 ± 0.011
AGGGGTACTT	1 ± 0.049
AGGGGTAGTT	1.01 ± 0.029
AGGGGTATT	1 ± 0.014
AGGGGTATTA	1.002 ± 0.01
AGGGGTGATA	1.023 ± 0.0047

Sequence	switch fluorescence ratio
AGGGGTGCCA	0.9529 ± 0.0048
AGGGGTTACG	0.981 ± 0.044
AGGGGTTATG	1 ± 0.021
AGGGGTTGGT	0.983 ± 0.027
AGGGGTTTGC	0.957 ± 0.021
AGGGTAAAAG	1.03 ± 0.024
AGGGTAACGA	0.999 ± 0.035
AGGGTACTGT	1.05 ± 0.092
AGGGTAGTGC	0.9869 ± 0.0091
AGGGTATTAG	0.995 ± 0.025
AGGGTATTCG	0.9981 ± 0.0049
AGGGTCAACG	1.018 ± 0.0099
AGGGTCAATG	0.983 ± 0.013
AGGGTCAGTG	1.02 ± 0.062
AGGGTCGGAT	0.972 ± 0.033
AGGGTCTGTA	0.939 ± 0.015
AGGGTCTGTT	0.978 ± 0.012
AGGGTGGAAA	1.02 ± 0.019
AGGGTGGGGT	0.977 ± 0.043
AGGGTGTGAC	1.01 ± 0.036
AGGGTTAGGT	1.003 ± 0.0028
AGGGTTGACA	0.981 ± 0.046
AGGGTTGACT	0.964 ± 0.012
AGGGTTTCCA	1.01 ± 0.06
AGGGTTTGGA	1 ± 0.02

Sequence	switch fluorescence ratio
AGGGTTTTAT	1.003 ± 0.0048
AGGTAAAGTT	0.972 ± 0.014
AGGTAAGTAG	1.01 ± 0.031
AGGTACAGGG	1.01 ± 0.041
AGGTACGGGG	0.971 ± 0.012
AGGTAGAGTG	0.948 ± 0.038
AGGTAGGCCA	0.951 ± 0.026
AGGTAGGCCT	0.991 ± 0.025
AGGTAGGTAA	1.03 ± 0.054
AGGTAGTGGG	0.974 ± 0.029
AGGTAGTGTC	1.03 ± 0.023
AGGTAGTGTG	0.989 ± 0.014
AGGTATAAGC	0.994 ± 0.043
AGGTATCAAT	1 ± 0.053
AGGTATGGCC	1.04 ± 0.091
AGGTATGGTT	0.984 ± 0.024
AGGTCAACCG	1.02 ± 0.02
AGGTCACAG	1 ± 0.03
AGGTCCGGTA	1.01 ± 0.011
AGGTCGCCTG	1.031 ± 0.0069
AGGTCGCGGT	0.994 ± 0.025
AGGTCGGACA	1.006 ± 0.0094
AGGTCGGGGA	1.05 ± 0.056
AGGTCGGTCT	0.995 ± 0.058
AGGTCGTTTT	0.991 ± 0.027

Sequence	switch fluorescence ratio
AGGTCTACTA	1.05 ± 0.059
AGGTGAAGGG	1.02 ± 0.018
AGGTGAGGGT	1.022 ± 0.0047
AGGTGAGGTA	1 ± 0.019
AGGTGATAGG	0.9825 ± 0.0059
AGGTGCATAC	1.45 ± 0.32
AGGTGCCAGG	1.07 ± 0.036
AGGTGGAAAC	1.01 ± 0.048
AGGTGGGCAG	0.984 ± 0.018
AGGTGGGGAG	0.998 ± 0.041
AGGTGGGTG	1.04 ± 0.1
AGGTGGTCTG	0.9885 ± 0.0047
AGGTGTAGCA	1.02 ± 0.051
AGGTGTGAGA	1.06 ± 0.044
AGGTGTGTTG	0.984 ± 0.034
AGGTTAAGTT	0.989 ± 0.021
AGGTTAGAAG	1.006 ± 0.0014
AGGTTAGCGT	0.9946 ± 0.0013
AGGTTAGGG	1 ± 0.064
AGGTTAGGTG	1.42 ± 0.34
AGGTTAGTAG	0.973 ± 0.0052
AGGTTAGTCG	1.01 ± 0.032
AGGTTATTTT	0.992 ± 0.04
AGGTTCACTT	0.998 ± 0.025
AGGTTCATTG	0.975 ± 0.021

Sequence	switch fluorescence ratio
AGGTTCCTAG	0.9775 ± 0.0049
AGGTTCGG	0.9937 ± 0.0069
AGGTTCTCGG	0.967 ± 0.026
AGGTTGAAGT	0.988 ± 0.011
AGGTTGCGAG	0.989 ± 0.019
AGGTTGGATC	0.995 ± 0.088
AGGTTGGCAA	1.07 ± 0.14
AGGTTGGTAA	0.969 ± 0.01
AGGTTTAATT	1.01 ± 0.015
AGGTTTGATC	1.006 ± 0.0096
AGGTTTTTAT	1.06 ± 0.16
AGGTTTTTGG	0.963 ± 0.012
AGGTTTTTTG	0.995 ± 0.016
AGTAAAAATG	0.982 ± 0.027
AGTAAAAGTT	0.989 ± 0.052
AGTAAAGATT	0.9995 ± 0.0041
AGTAAAGGCC	1.02 ± 0.08
AGTAAAGTCT	1.04 ± 0.035
AGTAAATTTA	1.001 ± 0.0046
AGTAAGAGGG	1.01 ± 0.012
AGTAAGGGGC	0.98 ± 0.019
AGTAAGGTTG	0.961 ± 0.054
AGTAAGTTGG	0.967 ± 0.022
AGTAATATAT	0.976 ± 0.028
AGTAATGTGC	0.996 ± 0.022

Sequence	switch fluorescence ratio
AGTACCATTG	0.997 ± 0.015
AGTACGCAAG	1.12 ± 0.039
AGTACGTGCG	0.9781 ± 0.0081
AGTACTAAAG	1.01 ± 0.033
AGTAGAAGAT	0.9552 ± 0.0071
AGTAGCGTCG	0.985 ± 0.048
AGTAGGAGCT	0.962 ± 0.026
AGTAGGCCTA	1.04 ± 0.025
AGTAGGCGGT	0.993 ± 0.023
AGTAGGGGCG	1.03 ± 0.033
AGTAGGGGGC	1 ± 0.035
AGTAGGGGGG	0.988 ± 0.033
AGTAGTCGTC	0.99 ± 0.058
AGTAGTGAGG	0.979 ± 0.017
AGTAGTTCGG	1.019 ± 0.0075
AGTAGTTGAA	0.988 ± 0.044
AGTAGTTTCG	0.983 ± 0.037
AGTATAGGGC	0.989 ± 0.049
AGTATAGTGG	1.03 ± 0.022
AGTATATGCC	1 ± 0.034
AGTATATTGG	0.99 ± 0.044
AGTATGGCGG	0.975 ± 0.068
AGTATTGGTG	0.956 ± 0.026
AGTCAAAAAG	0.985 ± 0.051
AGTCACAGCT	0.982 ± 0.032
